± gives the standard error. This sample holds only a part of the variants without activity.
B1: glmS ribozyme (parent)
chain: AUAAAAGCGCCAGAACUACAGAAAUGUAGUUGACGAGGAGGAGGUUUAUCGAAUUUUCGGCGGAUGCCUCCAAA

Columns and labels:
Conditions in all cases: with glucosamine-6-phosphate
glucosamine-6-phosphate [1] = variants of: B1; assay: self-cleavage kobs at 640 uM GlcN6P; higher = faster cleavage; RNA array
Procedure, shortened: (§1)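 Tracking of barcoded ribozyme variants used a hybridised Cy3 probe at 37 °C, after in situ transcription by E. coli RNA polymerase on sequenced MiSeq chips. The flowed solution held 40 μM to 10 mM glucosamine-6-phosphate in HEPES/KCl/Mg(OAc)2 buffer, and imaging ran over ~14 h. kobs was taken from exponential decay fits of normalised per-tile medians, and kcat and KM from weighted Michaelis–Menten fits.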

glucosamine-6-phosphate [2] = variants of: B1; assay: self-cleavage kobs at 2500 uM GlcN6P; higher = faster cleavage; RNA array
Procedure, shortened: as §1

glucosamine-6-phosphate [3] = variants of: B1; assay: self-cleavage kobs at 10000 uM GlcN6P; higher = faster cleavage; RNA array
Procedure, shortened: as §1

Row | Variant | self-cleavage kobs at 640 uM GlcN6P (glucosamine-6-phosphate [1]) | self-cleavage kobs at 2500 uM GlcN6P (glucosamine-6-phosphate [2]) | self-cleavage kobs at 10000 uM GlcN6P (glucosamine-6-phosphate [3])
1 | A33C A48C | < 1e-05 s⁻¹ | < 1e-05 s⁻¹ | 
2 | G32C G41A U46G C71U | < 1e-05 s⁻¹ | < 1e-05 s⁻¹ | 
3 | A14G U54A C58A C68U | 9.22e-05 ± 1.9e-05 s⁻¹ | 0.000131 ± 2.9e-05 s⁻¹ | 
4 | A6C A12C A39C C67U | < 1e-05 s⁻¹ | < 1e-05 s⁻¹ | < 1e-05 s⁻¹
5 | A12U A48G U49G | 6.79e-05 ± 3.2e-05 s⁻¹ |  | 
6 | G40U G41C C70A | 6.65e-05 ± 1.8e-05 s⁻¹ | 0.000546 ± 0.00013 s⁻¹ | 
7 | U30C U45G U56G C68G | < 1e-05 s⁻¹ | < 1e-05 s⁻¹ | 
8 | G13A G29C G66U | < 1e-05 s⁻¹ |  | 
9 | G32U A52U C58U C61U | < 1e-05 s⁻¹ | < 1e-05 s⁻¹ | 
10 | G7U U49G G51C A64C G66C | < 1e-05 s⁻¹ | < 1e-05 s⁻¹ | 
11 | A14G U54C C68G | 0.000112 ± 3e-05 s⁻¹ | 7.7e-05 ± 1.8e-05 s⁻¹ | 
12 | U31C A48G G60A | < 1e-05 s⁻¹ | < 1e-05 s⁻¹ | 
13 | U46G C50U C68G | 5.83e-05 ± 2.6e-05 s⁻¹ |  | 
14 | C10U G35U G51A | < 1e-05 s⁻¹ |  | 
15 | G7A C8A U65C | < 1e-05 s⁻¹ | < 1e-05 s⁻¹ | 
16 | C10G C11A U31C G35C C70G | 0.00013 ± 6.3e-05 s⁻¹ |  | 
17 | C11U U30C G43A | < 1e-05 s⁻¹ |  | 
18 | A14G G38U G66A | < 1e-05 s⁻¹ |  | 
19 | A6U U31A G35U A42U G62U | < 1e-05 s⁻¹ | < 1e-05 s⁻¹ | 
20 | C8U G29A G37A A39U C61U A64C | < 1e-05 s⁻¹ |  | 
21 | U31G A36C U49G | 8.9e-05 ± 1.7e-05 s⁻¹ | 0.000257 ± 4.5e-05 s⁻¹ | 0.000385 ± 6.8e-05 s⁻¹
22 | G9C G43U U55G A64G | < 1e-05 s⁻¹ | < 1e-05 s⁻¹ | 
23 | C8G C16G G38A | < 1e-05 s⁻¹ |  | 

Row | Variant | self-cleavage kobs at 640 uM GlcN6P (glucosamine-6-phosphate [1]) | self-cleavage kobs at 2500 uM GlcN6P (glucosamine-6-phosphate [2]) | self-cleavage kobs at 10000 uM GlcN6P (glucosamine-6-phosphate [3])
24 | C10A G62U C70G | 9.92e-05 ± 3.7e-05 s⁻¹ | 0.000143 ± 4.8e-05 s⁻¹ | 
25 | C16G C34G A42C G43A | < 1e-05 s⁻¹ |  | 
26 | U30A A48C C58U G59C | < 1e-05 s⁻¹ |  | 
27 | U46A U54G C70A | 5.86e-05 ± 2.1e-05 s⁻¹ | 0.000289 ± 7.5e-05 s⁻¹ | 
28 | U45C C50A U56C | < 1e-05 s⁻¹ |  | 
29 | C10G A15C | < 1e-05 s⁻¹ |  | < 1e-05 s⁻¹
30 | C16U U55A C68U | 0.000364 ± 0.00011 s⁻¹ | 0.00062 ± 0.00021 s⁻¹ | 
31 | A15G G51C A52G G62A | < 1e-05 s⁻¹ | < 1e-05 s⁻¹ | 
32 | A6G C61G C71G | 7.45e-05 ± 2.4e-05 s⁻¹ |  | 
33 | A42G U45C G59C G62U C68U | < 1e-05 s⁻¹ |  | 
34 | G9U C61A C70G | 4.55e-05 ± 2.1e-05 s⁻¹ |  | 
35 | A12C G38C U49C C50A | < 1e-05 s⁻¹ | < 1e-05 s⁻¹ | 
36 | C16U A39G A42U U47A | 5.33e-05 ± 2.6e-05 s⁻¹ | 0.000115 ± 1.9e-05 s⁻¹ | 
37 | C11A U46C | < 1e-05 s⁻¹ |  | 
38 | A6U A12G G59C C67A | < 1e-05 s⁻¹ |  | 
39 | U45C A52G C70U | 4.7e-05 ± 1.6e-05 s⁻¹ | 6.92e-05 ± 1.3e-05 s⁻¹ | 
40 | G7C A42U | < 1e-05 s⁻¹ |  | 
41 | G29A G35C G40A | < 1e-05 s⁻¹ |  | 
42 | A33C A53G | 3.89e-05 ± 1.4e-05 s⁻¹ | 7.39e-05 ± 1.3e-05 s⁻¹ | 0.000235 ± 3.8e-05 s⁻¹
43 | A6U U45A C50G U65G U69G | < 1e-05 s⁻¹ |  | 
44 | G29U A33U G44U A52U | < 1e-05 s⁻¹ |  | 
45 | U31C A39C G51C | < 1e-05 s⁻¹ |  | 
46 | G38A U54G C71U | < 1e-05 s⁻¹ |  | 

Row | Variant | self-cleavage kobs at 640 uM GlcN6P (glucosamine-6-phosphate [1]) | self-cleavage kobs at 2500 uM GlcN6P (glucosamine-6-phosphate [2]) | self-cleavage kobs at 10000 uM GlcN6P (glucosamine-6-phosphate [3])
47 | A52G G66A | 0.000162 ± 3e-05 s⁻¹ | 0.000203 ± 4.6e-05 s⁻¹ | 0.000481 ± 0.00017 s⁻¹
48 | C16G G63U | < 1e-05 s⁻¹ | < 1e-05 s⁻¹ | < 1e-05 s⁻¹
49 | G13A G59A G62A | < 1e-05 s⁻¹ |  | 
50 | A12U A52U G60A | < 1e-05 s⁻¹ |  | 
51 | G7A G9U G13U A48C | < 1e-05 s⁻¹ |  | 
52 | U47G G59A C67G | 0.000579 ± 0.00015 s⁻¹ |  | 
53 | G9A U45C A53U G60C | < 1e-05 s⁻¹ |  | 
54 | A33C G35C U49G G59C | < 1e-05 s⁻¹ | < 1e-05 s⁻¹ | 
55 | G7A A52G U57A | < 1e-05 s⁻¹ | < 1e-05 s⁻¹ | 
56 | A12U C34G G51U U57A U65G | < 1e-05 s⁻¹ |  | 
57 | G29A A48U G62C | < 1e-05 s⁻¹ |  | 
58 | A15G G38U | < 1e-05 s⁻¹ |  | 
59 | U55G U56A G60U C71U | < 1e-05 s⁻¹ |  | 
60 | G13A A42C G44U | < 1e-05 s⁻¹ |  | 
61 | C34G A39U U49G | < 1e-05 s⁻¹ |  | 
62 | G32A U65A C71U | 5.38e-05 ± 1.4e-05 s⁻¹ | 9.54e-05 ± 2.4e-05 s⁻¹ | 
63 | G43C C50A | < 1e-05 s⁻¹ | < 1e-05 s⁻¹ | 
64 | U31C C50G G59A C71G | 7.63e-05 ± 1.9e-05 s⁻¹ |  | 
65 | C8U A39U G59C | < 1e-05 s⁻¹ |  | 
66 | C34U U46G C68G | 0.000568 ± 0.00025 s⁻¹ | < 1e-05 s⁻¹ | 
67 | G51U U55C | < 1e-05 s⁻¹ |  | < 1e-05 s⁻¹
68 | A14C A42G G43A U69C C70U | < 1e-05 s⁻¹ |  | 
69 | A12C U30A G35A | < 1e-05 s⁻¹ | < 1e-05 s⁻¹ | < 1e-05 s⁻¹
